# In patent publication US20240285784A1, “PEPTIDIC CONJUGATES OF SN38 USEFUL IN THE TREATMENT OF CANCER” (FUNDACIÓ INSTITUT DE RECERCA BIOMÈDICA (IRB BARCELONA), priority 2020, published 2024):
# Where two headings read alike, the source gives them in different places. *1 amine or outer side, *2 acyl side, *3 side chain or, on linkers, in order; H or OH if unused. Where a SMILES comes first, the peptide text is derived from it. Bridges are numbered along the chain shown (N, C = ends). [ ]: non-standard residue; d: D form. The star is where a group is joined. X1 = CCc1c2c(nc3ccc(O)cc13)-c1cc3c(c(=O)n1C2)COC(=O)[C@@]3(CC)OC(=O)CCCCn1cc(CCCC(=O)NCCCOCCOCCOCCCN*)nn1; Suc = O=C(CCC(=O)[*:2])[*:1]; Dap = NC[C@H](N)C(=O)O
# Key:
# [1] = Stability in dog plasma at 37° C. in vitro; assay type: in vitro ADME
# Protocol: (§1) To assess the stability of the SN38-linker A-MiniAp4 (Ia) (example 7) in human, mouse, dog and rat plasma at 37° C., the compound was prepared at 200 μM in plasma samples in triplicates at each timepoint (0 h, 1 h, 4 h, 8 h and 24 h) for each species. Once the incubation was finalised, plasma proteins were immediately precipitated by adding chilly methanol (ratio 4:1, methanol:plasma) and tubes were shacked for few seconds (vortex). Samples were centrifuged at 3,000 rpm for 30 minutes at 4° C., supernatants were collected, transferred to the injection plate and injected to LC-MS system.
# (§2) Compound recovery was determined by comparing the analyte response in a biological sample that is spiked with the analyte and processed, with the response in a methanol sample that is spiked with the analyte and processed.
# (§3) Plasma stability assay was performed using blank plasma from untreated volunteers/animals. K2-EDTA was used as anticoagulant. Human blank plasma used was obtained from Hospital Sant Pau, mouse blank plasma used was obtained from Janvier, dog blank plasma used was obtained from Isoquimen and rat blank plasma used were obtained from Draconis Pharma.
# [2] = tested on: athymic nude mice; assay: In vivo tolerability, repeated intravenous injections (mouse weight); conditions: 30 mg/kg i.v., 9 doses (days 1, 3, 5, 8, 10, 12, 29, 31, 33), weight until day 40
# Protocol: Upon the establishment of the MTD of SN38-linker A-MiniAp4 (Ia) at single i.v, we compared mean weight of mice treated with irinotecan at a clinically relevant multi-dose regimen, and SN38-linker A-MiniAp4 (Ia)at an equimolar dose. Briefly, mice were treated with either irinotecan 10 mg/kg (15 doses, on days 1-5, 8-12 and 29-33), by the intraperitoneal (i.p.) route, or with a SN38-linker A-MiniAp4 (Ia) 30 mg/kg (9 doses, on days 1, 3, 5, 8, 10, 12, 29, 31, 33), intravenously (i.v.). This regimen was considered the maximum feasible number of i.v. injections in mice. Control mice were treated with saline i.p. on days 1-5, 8-12 and 29-33.
# Mouse weight was measured until day 40 and mean and SD values are represented for each group in FIG. 19. […] Weight of SN38-linker A-MiniAp4 (Ia) (Ia) treated mice was similar to that of mice treated with clinically relevant dosages of irinotecan.
# [3] = Stability in rat plasma at 37° C. in vitro; assay type: in vitro ADME
# Protocol: as §1, §2, §3
# [4] = Stability in human plasma at 37° C. in vitro; assay type: in vitro ADME
# Protocol: as §1, §2, §3
# To assess the stability of the G2B-001 lineal (Ib) (example 16) in human plasma at 37° C., the compound was prepared at 200 µM in plasma samples in triplicates at each timepoint (0 h, 0.5 h, 1 h, 2 h, 4 h, 8 h and 24 h). Once the incubation was finalised, plasma proteins were immediately precipitated by adding chilly methanol (ratio 4:1, methanol:plasma) and tubes were shacked for few seconds (vortex). Samples were centrifuged at 3,000 rpm for 30 minutes at 4° C., supernatants were collected, transferred to the injection plate and injected to LC-MS system. Compound recovery was determined by comparing the analyte response in a biological sample that is spiked with the analyte and processed, with the response in a methanol sample that is spiked with the analyte and processed.
# Plasma stability assay was performed using blank plasma from untreated volunteers. K2-EDTA was used as anticoagulant. Human blank plasma used was obtained from Hospital Sant Pau.
# [5] = Evaluation of solubility in water; assay type: physicochemical
# Protocol: 25 mg of SN38-linker A-MiniAp4 were dissolved in H2O, showing a completely transparent solution. This means that SN38-linker A-MiniAp4 has a solubility in water higher than 5 mg/mL, more than 400-fold the solubility in water described for SN38 (Mol. Pharmaceutics, 2016, 13, 379-390).
# [6] = tested on: athymic nude mice; assay: Maximum tolerated dose, single intravenous injection; assay type: in vivo; conditions: 200 mg/kg single i.v., following 14 days, compared to untreated control animals
# Protocol: (§4) To evaluate the toxicity of irinotecan and SN38-linker A-MiniAp4 (Ia) (also named G2B-001) in athymic nude mice (10 week old; 8 mice per group) first the maximum tolerated dose (MTD) of SN38-linker A-MiniAp4 (Ia) was studied, by intravenous injection. Three mice were injected at dose levels 200, 500 and 1000 mg/kg, and observed for symptoms including death or weight lost during the following 14 days. The MTD was established at 200 mg/kg.
# [7] = as above; assay type: in vivo, mice; conditions: mouse, in vivo; single intravenous injection, athymic nude mice, observed 14 days
# Protocol: as §4
# [8] = Stability in human serum at 37° C. in vitro; assay type: in vitro ADME; conditions: 200 μM in HBSS, 90% human serum
# Protocol: Regarding to the stability in human serum of the SN38-linker A-MiniAp4 (Ia) (example 7), it was incubated at a concentration of 200 μM in buffer HBSS at 37° C. in the presence of 90% human serum. At a range of times, 100 μL aliquots were collected to which 400 μL cold methanol was added in order to precipitate the serum proteins. The samples were centrifuged at 3000 rpm at 4° C. during 30 min, filtered and analyzed by UPLC-PDA and UPLC-MS to determine the degree of degradation of SN38-Linker A-MiniAp4 (Ia).
# [9] = Stability in mouse plasma at 37° C. in vitro; assay type: in vitro ADME
# Protocol: as §1, §2, §3
# [10] = Turbidimetric aqueous solubility; assay type: physicochemical; conditions: for solubility at 2 hr: kinetic from dmso stock, 0.01 M phosphate buffered saline pH 7.4, 1% DMSO, 2 hr at 37° C., absorbance 620 nm
# Protocol: Each test compound concentration was then further diluted 1 in 100 in buffer (0.01 M phosphate buffered saline pH 7.4) so that the final DMSO concentration was 1% and the final test compound concentrations were 1, 3, 10, 30 and 100 μM. The experiment was performed at 37° C. and each concentration was incubated in 7 replicate wells. The plates were incubated for 2 hr at 37° C. before the absorbance was measured at 620 nm.
compound,measurement,setting,value
CCc1c2c(nc3ccc(O)cc13)-c1cc3c(c(=O)n1C2)COC(=O)[C@@]3(CC)OC(=O)CCCCn1cc(CCCC(=O)NCCCOCCOCCOCCCNC(=O)CCC(=O)N[C@H]2CNC(=O)C[C@@H](C(N)=O)NC(=O)[C@H](CC(C)C)NC(=O)[C@H](C)NC(=O)[C@H]([C@@H](C)O)NC(=O)[C@H](CCC(=O)O)NC(=O)[C@@H]3CCCN3C(=O)[C@H](C)NC(=O)[C@H](CCCCN)NC2=O)nn1 [SN38-linker A-MiniAp4 (Ia)] ({X1-Suc}-[Dap]KAPETALD-NH2; lactam 1-9),half-life at 200 μM,[1],8 to 24 h
same,"recovery at 24 h, 200 μM","[1]; 24 h, read-out: % Recovery after 24 h in dog plasma",68.3%
same,mouse weight versus controls,[2],did not lose significant weight
same,half-life at 200 μM,[3],> 24 h
same,"recovery at 24 h, 200 μM","[3]; 24 h, read-out: % Recovery after 24 h in rat plasma",61.2%
same,half-life at 200 μM,[4],> 24 h
same,"recovery at 24 h, 200 μM","[4]; 24 h, read-out: % Recovery after 24 h in human plasma",65.1%
same,solubility in water relative to the solubility in water described for SN38,"[5]; versus literature solubility of SN38 (Mol. Pharmaceutics, 2016, 13, 379-390)",more than 400 fold
same,solubility,"[5]; water, 25 mg dissolved in H2O, completely transparent solution",> 5000 µg/mL
same,symptoms including death or weight lost at the MTD,[6],survived and did not show immediate symptoms of distress or significant weight lost
same,MTD at 14 days,[7],200 mg/kg
same,half-life at 200 μM,[8],> 24 h
same,degree of degradation in human serum,[8]; 24 h,No significant degradation
same,half-life at 200 μM,[9],8 to 24 h
same,"recovery at 24 h, 200 μM","[9]; 24 h, read-out: % Recovery after 24 h in mouse plasma",57.1%
same,solubility at 2 hr,"[10]; 37 °C, pH 7.4, aqueous buffer, read-out: Turbidity aqueous solubility, Estimated precipitation range, Lower bond",30 µM
same,solubility at 2 hr,"[10]; 37 °C, pH 7.4, aqueous buffer, read-out: Turbidity aqueous solubility, Estimated precipitation range, Upper bond",100 µM
same,solubility at 2 hr,"[10]; aqueous buffer, read-out: Turbidity aqueous solubility, Estimated precipitation range, Calculated mid-range",65 µM
same,solubility problems in turbidimetric solubility test,[10]; up to 100 micromolar,No solubility problems
